Reference: patent publication US20240182575A1 (Ablynx, published 2024)

Experiments:
[1] = biological target: T1, human CD28 on Jurkat cells (human, UniProt P10747 19-220); assay: FACS, Jurkat cells
T1 construct: whole, on cells; also called native form of the CD28 antigen; cell expressed CD28
Experimental: Binding of putative CD28 reactive Nanobodies clones was detected using unlabeled anti-c-myc tag mouse monoclonal antibody 9E10, followed by a phycoerythrin conjugated F(ab′)2 derived from goat-anti-mouse IgG (human and bovine crossabsorbed), and read on a BD FACSarray instrument. Dead cells were excluded from the analysis by gating out TOPRO3 vital dye positive scoring cells. Binding of the Nanobodies to cells was evaluated in BD FACSarray control software as PE channel histograms.

[2] = biological target: T2, HuCD28-HuIgG1 (fusion protein of the extracellular part of human CD28 and human Fc gamma 1, R&D Systems Cat … (human, UniProt P10747 19-152; P01857 100-330 = IgG part); assay: competition ELISA, periplasmic extract, CD28-hFc in solution; blocked ligand coated B7-1-muFc
T2 construct: extracellular domain;domain: Fc; bought; also called CD28-Ig; hCD28-Fc
Text: This mixture was applied on the coated B7-1 and CD28 was allowed to bind to the immobilized B7-1.

[3] = biological target: T3, HuCTLA4-HuIgG1 (fusion protein of the extracellular part of human CD152 and human Fc gamma 1, CTLA4-Ig) (human, UniProt P16410 36-161); assay: competition ELISA, CTLA4-hFc in solution; blocked ligand coated B7-1-muFc
T3 construct: extracellular domain; also called CTLA4-hFc; CTLA4-Fc; not shown: human Fc gamma 1
Experimental: In order to determine B7-1 competition efficiency of CTLA4 binding Nanobodies, the purified clones were tested in an ELISA competition assay setup.

[4] = biological target: T3, HuCTLA4-HuIgG1 (fusion protein of the …); assay: as above; remark: listed apart in the source
[5] = biological target: T3, HuCTLA4-HuIgG1 (fusion protein of the …); assay: competition ELISA, CTLA4-hFc in solution; blocked ligand coated B7-2-muFc
[6] = biological target: T3, HuCTLA4-HuIgG1 (fusion protein of the …); assay: SPR, Biacore T100, CTLA4-Ig amine-coupled
[7] = biological target: T3, HuCTLA4-HuIgG1 (fusion protein of the …); assay: alphascreen; competitor biotinylated HuCD80-MuIgG2a
Text: Individual clones were scored as putative CTLA4/CD80 interaction inhibiting if the presence of the periplasmic extract decreased the fluorescent signal of the acceptor beads.

[8] = biological target: T4, cynomolgus monkey CTLA4 on stably transfected CHO-K1 cells (human CTLA4 cDNA with S13N, I17T and L105M) (human backbone with cynomolgus monkey …, UniProt P16410 36-223); assay: FACS, direct binding titration on cyno CTLA4 CHO cells (head prints IC50)
T4 chain: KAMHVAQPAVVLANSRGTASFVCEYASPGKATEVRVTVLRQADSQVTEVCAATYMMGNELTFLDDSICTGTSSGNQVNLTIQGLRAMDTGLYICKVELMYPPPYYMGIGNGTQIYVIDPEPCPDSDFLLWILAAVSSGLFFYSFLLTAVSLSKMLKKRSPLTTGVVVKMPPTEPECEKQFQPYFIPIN

[9] = biological target: T5, human CTLA4 (Y201 mutated to valine) on stably transfected CHO-K1 cells (human, UniProt P16410 36-223); assay: competition FACS on human CTLA4 CHO cells; competitor HuCD80-HuIgG1 10 nM
T5 construct: whole, on cells; the mutation of the intracellular position Y201 keeps the protein on the membrane; also called human CTLA4 overexpressing CHO cells; human CTLA4 transfectant
Text: (§1) The potency of selected Nanobodies to inhibit the interaction of CTLA4 with CD80 was also ranked using FACS based screening method. […] This concentration was previously determined to be the minimal amount required to saturate all CD80 binding sites on both human and cyno CTLA4 expressing CHO cell clones in the absence of any CTLA4 interaction blocking proteins. […] Dead cells were stained by including TOPRO3 vital dye in the final resuspension buffer. All samples were read on a BD FACSarray instrument. Dead cells were excluded from the analysis by gating out TOPRO3 vital dye positive scoring cells.

[10] = biological target: T5, human CTLA4 (Y201 mutated to valine) on …; assay: FACS, direct binding titration on human CTLA4 CHO cells (head prints IC50)
[11] = biological target: T5, human CTLA4 (Y201 mutated to valine) on …; assay: FACS competition, human CTLA4 CHO cells; blocked ligand CD80-Fc
Text: as §1

[12] = biological target: T6, HuCD80-HuIgG1 (fusion protein of the extracellular part of human CD80 and human Fc gamma 1, R&D Systems Cat … (human, UniProt P33681 35-242)); assay: SPR, Biacore 3000, antigen amine-coupled
T6 construct: extracellular domain; bought, produced in NS0 cells; also called CD80-IgG1; CD80-Ig; not shown: human Fc gamma 1
T6 sequence (looked up): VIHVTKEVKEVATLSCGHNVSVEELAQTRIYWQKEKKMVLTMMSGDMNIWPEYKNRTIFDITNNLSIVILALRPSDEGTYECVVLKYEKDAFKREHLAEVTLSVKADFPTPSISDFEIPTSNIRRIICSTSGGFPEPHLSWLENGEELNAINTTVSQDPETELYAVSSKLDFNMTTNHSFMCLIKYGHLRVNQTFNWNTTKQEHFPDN
Experimental: (§2) Affinity constants (Kd) of individual purified Nanobody clones were determined by surface plasmon resonance on a Biacore 3000 instrument. […] Remaining reactive groups were inactivated using ethanolamine. Nanobody binding was assessed at 1 and 0.1 microM. Each sample was injected for 4 min at a flow rate of 45 μl/min to allow for binding to chip-bound antigen. Next, binding buffer without Nanobody was sent over the chip at the same flow rate to allow for dissociation of bound Nanobody. After 2 min, remaining bound analyte was removed by injecting regeneration solution (50 mM NaOH or Glycine/HCl pH 1.5). Binding curves obtained at different concentrations of Nanobody were used to calculate Kd values.

[13] = biological target: T7, HuCD86-HuIgG1 (fusion protein of the extracellular part of human CD86 and human Fc gamma 1, R&D Systems Cat … (human, UniProt P42081 24-247)); assay: SPR, Biacore 3000, antigen amine-coupled
T7 construct: extracellular domain; bought; also called CD86-IgG1; CD86-Ig; not shown: human Fc gamma 1
T7 sequence (looked up): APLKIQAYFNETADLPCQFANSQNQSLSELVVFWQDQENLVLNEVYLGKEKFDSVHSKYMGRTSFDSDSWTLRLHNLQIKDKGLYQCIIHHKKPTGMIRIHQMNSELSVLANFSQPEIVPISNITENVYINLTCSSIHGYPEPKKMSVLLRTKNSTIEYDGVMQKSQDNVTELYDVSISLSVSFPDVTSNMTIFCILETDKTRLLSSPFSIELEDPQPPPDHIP
Experimental: as §2

[14] = biological target: T8, HuCD80-MuIgG2a (extracellular (173aa) domain of human CD80 fused to murine IgG2a Fc+hinge (232 aa), Ancell … (human; mouse, UniProt P33681 35-242); assay: competition ELISA, coated CD80-Ig; blocked ligand CD28-Ig
T8 construct: extracellular domain; bought, produced in CHO cells; also called B7-1-muFc; not shown: murine IgG2a Fc+hinge (232 aa)
T8 sequence (looked up): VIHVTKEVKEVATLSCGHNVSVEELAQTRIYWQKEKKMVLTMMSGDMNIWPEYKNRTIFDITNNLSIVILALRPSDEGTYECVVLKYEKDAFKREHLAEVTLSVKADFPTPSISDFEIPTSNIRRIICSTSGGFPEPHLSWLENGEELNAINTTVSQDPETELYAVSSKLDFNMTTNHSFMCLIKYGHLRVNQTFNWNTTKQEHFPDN
Experimental: Inhibition was determined based on OD values of controls having received no Nanobody (high control) or no CD28- or CTLA4-HuIgG1 fusion protein (low control).

[15] = biological target: T9, HuCD86-MuIgG2a (fusion protein of the extracellular part of human CD86 and mouse Fc gamma 2a, Ancell Cat … (human; mouse, UniProt P42081 24-247; P01863 98-330 = IgG part); assay: competition ELISA, coated CD86-Ig; blocked ligand CD28-Ig
T9 construct: extracellular domain;domain: Fc; bought; also called B7-2

[16] = biological target: T10, rhB7-H2-Fc (fusion protein of the extracellular part of human B7-H2 (ICOSL) and mouse Fc gamma 1, R&D Systems … (human; mouse, UniProt O75144 19-256; P01868 98-324 = IgG part, limits assumed); assay: competition ELISA, periplasmic extract, coated B7-H2; blocked ligand ICOS-biotin
T10 construct: extracellular domain;domain: Fc; bought; also called B7-H2 ectodomain
Experimental: Binding specificity was determined based on OD values compared to controls having received no Nanobody (high control).
After expression, the Nanobodies were purified via the His-tag on Talon beads.

B1: 65G2 (VHH)
VHH: EVQLVESGGGLVQPGGSLRLSCAASGFTLDAYAIHWFRQAPGKEREGVSCISSSDGSTYYANSVKGRFTISRDNAKNAVYLQMNSLKPEDTAVYYCATAKRCWGLSYEYDYWGQGTQVTVSS
notes: Nanobody against CD28
[1]
  binding result: binds
[2]
  binding result: binds

B2: 65H7 (VHH)
VHH: EVQLVESGGGLVQPGGSLRLSCAASGSILSIAVAGWYRRQPGKERELVATISPGNNTHYVDSVKGRFTISRDNAKNTVYLQMTTLKPDDTAAYYCNAKGSILLNAFDYWGKGTQVTVSS
notes: Nanobody against CTLA4; also called 65H7 (4-1)
[3]
  IC50 (read off the curve): ~100 nM
[4]
  IC50 (read off the curve): ~100 nM
[5]
  IC50 (read off the curve): ~200 nM

B3: 4CTLAPMP02F4 (VHH)
VHH: EVQLVESGGGLVQTGGSLRLSCAASGRTFSNYTMGWFRQAPGKDREFVAAISRSGALKAYADSVKGRFTPSRDNAKKMAYLQMNSLKPEDTAVYYCAAAPVPWGTRPSFFPYDSWGQGTQVTVSS
notes: short label tied to the entry by the clone code only; not shown: C-terminal c-myc tag and His6 tag
[6]
  Kd: 0.466 nM
  koff: 0.00266 s⁻¹
  kon: 5.69e+06 M⁻¹ s⁻¹
[7]
  IC50: 0.827 nM
[8]
  IC50: 2.36 nM
[9]
  IC50: 11.4 nM
[10]
  IC50: 2.38 nM
[11]
  IC50 (read off the curve): ~10 nM

B4: 65D10 (VHH)
VHH: EVQLVESGGGLVQAGGSLRLSCAASGRTSSTATVGWFRQAPGKEREFVAVINWRSGFTYYADSVKGRFTISREYAKNTVYLQMDSLKPEDTAVYSCAADLGGRTLYGGIHYSPEEYAYWGQGTQVTVSS
notes: Nanobody against CTLA4; also called 65D10 (4-4)
[3]
  IC50 (read off the curve): ~200 nM

B5: 66B5 (VHH)
VHH: EVQLVESGGGLVQPGESLRLSCAASKSIFSISVMAWYRQAPGKQRELVARITPGGNTNYVDSVQGRFTISRDNAKNTVYLQMNSLKPEDTAVYYCNAQGSLLLAKYDYYGQGTQVTVSS
notes: Nanobody against CTLA4
[5]
  binding result: binds

B6: CD8086PMP1E11 (VHH)
VHH: EVQLVESGGGLVQPGGSLRLSCAASGFTLDYSAIGWFRQAPGKEREGVSYISSSDGSTYYADSVEGRFTISRDNAKNTLYLQMNSLKPEDTAVYYCAAGGPFTVSTMPWLANYWGQGTQVTVSS
notes: not shown: C-terminal c-myc tag and His6 tag
[12]
  Kd: 23 nM
  koff: 0.0004 s⁻¹
  kon: 18000 M⁻¹ s⁻¹
[13]
  Kd: 553 nM
  koff: 0.002 s⁻¹
  kon: 3600 M⁻¹ s⁻¹
[14]
  IC50 (read off the curve): ~400 nM
[15]
  IC50 (read off the curve): ~10 nM

B7: 95G6 (VHH)
VHH: EVQLVESGGALVQPGGSLRLSCAASGFTLGDYVIGWFRQAPGKEREWVSGISSRDGTTYYADSVKGRFTISRDNAKNTMYLQMNSLKPEDTAVYYCALRSGIAVARAPSNYDYWGQGTQVTVSS
notes: Nanobody against B7-H2 (ICOSL)
[16]
  binding result: binds

B8: 4CTLAPMP11F1 (VHH)
VHH: EVQLVESGGGLVQAGGSLRLSCAASGGTFSFYGMGWFRQAPGKEQEFVADIRTSAGRTYYADSVKGRFTISRDNAKNTVYLQMNSLKPEDTAVYYCAAEMSGISGWDYWGQGTQVTVSS
notes: short label tied to the entry by the clone code only; also called 11F1 WT; not shown: C-terminal c-myc tag and His6 tag
[6]
  Kd: 10 nM
  koff: 0.0187 s⁻¹
  kon: 1.86e+06 M⁻¹ s⁻¹
[7]
  IC50: 1.04 nM
[8]
  IC50: 5.51 nM
[9]
  IC50: 36.4 nM
[10]
  IC50: 4.55 nM
